From publication PMC10148881 (2023) come the findings set out here.

First the molecules themselves.
B1: Ala6/C-degron peptide (sequence: YKTSAAAAAA) / Pirh2 NTD + RING (residues 1–189) [human] (parent complex)
chain 1: YKTSAAAAAA
chain 2: MAATAREDGASGQERGQRGCEHYDRGCLLKAPCCDKLYTCRLCHDNNEDHQLDRFKVKEVQCINCEKIQHAQQTCEECSTLFGEYYCDICHLFDKDKKQYHCENCGICRIGPKEDFFHCLKCNLCLAMNLQGRHKCIENVSRQNCPICLEDIHTSRVVAHVLPCGHLLHRTCYEEMLKEGYRCPLCMHS
B2: YKTSAAAA peptide / Pirh2 NTD + RING (residues 1–189) [human] (parent complex)
chain 1: YKTSAAAA
chain 2: B1 chain 2

One test covers variants of B1. Put plainly: ITC. (In general: ITC needs no label: the signal is the heat of the interaction.)
What is called Kd is the equilibrium constant for the complex coming apart. chain 1 A8T: the Kd was 0.7 µM.

Variants of B2 are the subject of a further test. Put plainly: ITC.
Consider chain 1 A7V, for which the dissociation constant Kd is 13 µM. Still for that read-out and setting: then chain 1 A7I, with 13 µM; and chain 1 A7S, with 20 µM; and chain 1 A7G, with 22 µM. Still for that read-out and setting: then chain 1 A7P, with 26 µM.

The variants in another test derive from B2. Put plainly: ITC. The source holds these as a separate data set.
As to chain 1 A8G, the Kd came out at 23 µM.

In a further test the parent is B2. The experiment in a line: ITC. This is another data set of the same source.
With chain 1 A6G, the Kd amounted to 2.3 µM. Same read-out and setting: in the case of chain 1 A6I it was 2.7 µM; in that of chain 1 A6S, 3 µM. On the same count and under the same terms, then chain 1 A6L, with 2.8 µM; and chain 1 A6V, with 1.9 µM.

The variants in a further test derive from B2. The experiment in a line: ITC. The source holds these as a separate data set.
With chain 1 A5P, the dissociation constant (Kd) came out at 57 µM. Still for that read-out and setting: in the case of chain 1 A5S it was 4.5 µM; in that of chain 1 A5G, 55 µM.
